According to patent publication US10407488B2, “Therapy for treatment or prevention of conditions associated with bleeding or hypocoagulation” (THE REGENTS OF THE UNIVERSITY OF CALIFORNIA, priority 2013, dated 2019):
Where “and” joins values, the source holds several entries; their conditions need not be identical. Equal entries are not always repeated.

How the values were obtained:
[1] = test system: thrombin generation in normal human plasma; experiment: Thrombin generation in NHP in the presence of rivaroxaban or apixaban; format: biochemical; conditions: dose titration in NHP
Protocol: Thrombin generation or Endogenous Thrombin Potential (ETP) assays were performed as described. Briefly, plasma samples supplemented with CTI, TF, PCPS were preincubated […] in the presence or absence of rivaroxaban, apixaban, Kcentra®, NovoSeven® or ^superFVa. Thrombin generation was initiated by addition of CaCl2 and Z-Gly-Gly-Arg-AMC in HBS/0.5% BSA. The final reaction mixture contained, 50% plasma, 0.725 μM CTI, 0.2 Pm TF, 4 μM PCPS vesicles, 0.5 mM Z-GGR-AMC, 7.6 mM CaCl2 in a total volume of 100 μl. Concentrations of rivaroxaban, apixaban, Kcentra®, NovoSeven® or ^superFVa are indicated in the result section and in the figure legends. Fluorescence was measured at excitation/emission wavelengths of […] using Gemini EM fluorescent plate reader (Molecular Devices). Fluorescence time course data were converted to Nm thrombin as described. ETP, defined as the area under the curve (AUC) and the peak height were determined using Origin software.

[2] = test system: thrombin generation in normal human plasma with rhAPC; experiment: Thrombin generation in normal human plasma in the presence of rhAPC; format: biochemical; conditions: human plasma
Protocol: (§1) BU titer values for FVIII antibodies added to FVIII-deficient plasma were determined using a modified Nijmegen Bethesda assay (Barrow and Lollar; JTH 2006, 4:2223-2229). Briefly, antibody was serially diluted in HBS with 0.05% Tween 80 and mixed 1:1 with pooled normal plasma that was supplemented with 100 mM Imidazole, pH 7.0. Samples were incubated at 37° C. for 2 hours then assayed by aPTT with APTT XL reagent (Pacific Hemostasis). A standard curve was derived from a serial dilution of normal plasma into FVIII deficient plasma that was also mixed 1:1 with HBST and incubated at 37° C. for 2 hours. Percent FVIII activity was plotted versus mg/ml of antibody and residual activity of 50% was defined as 1 BU/ml. In addition, endogenous thrombin potential (ETP) assays were performed as described (3). Briefly FVa mutants or saline were added to human or murine plasma (George King Bio-Medical; mouse source, 50% v/v) supplemented with […] corn trypsin inhibitor (Haematologic Technologies), 10 mM CaCl2, 10 μM phospholipid vesicles (80% phosphatidylcholine, 20% phosphatidylserine, prepared as described (6), 0.2 pM soluble tissue factor (Innovin®, Dade Behring), and 0.4 mM Z-Gly-Gly-Arg-AMC (thrombin substrate, Bachem) in HBS. After mixing, 100 μL was transferred to a FluoroNunc microtiter plate at 37° C. to monitor fluorescence (excitation at 360 nm/emission at 460 nm; Gemini EM fluorescent plate reader (Molecular Devices)). Fluorescence time course data were converted to nM thrombin as described (7). ETP, defined as the area under the curve, was determined using Prism 5.04 (Graphpad).
(§2) APC-mediated inactivation of FVa was analyzed in ETP assays and aPTT clotting assays. FVa mutants were incubated with equal volumes of either recombinant human APC (Xigris®) or buffer in human and murine Balb/c plasma.

[3] = test system: thrombin generation in murine Balb/c plasma with rhAPC; experiment: Thrombin generation in murine Balb/c plasma in the presence of rhAPC; format: biochemical, mouse
Protocol: as §1, §2

[4] = test system: aPTT clotting time in human plasma; experiment: aPTT clotting assay in human plasma with rhAPC; format: biochemical; conditions: human plasma
Protocol: as §2
(§3) Plasma (50 μL) was mixed with 50 μL of a PTT reagent (APTT-XL, Pacific Hemostasis) and incubated at 37° C. for 3 minutes in the presence of FVa either with recombinant human APC or buffer. Following addition of 25 μL of 50 mM CaCl2 in HBS, 0.5% BSA, the clotting time was recorded using an ST4 coagulometer (Diagnostica Stago).

[5] = test system: aPTT clotting time in murine plasma; experiment: aPTT clotting assay in murine plasma with rhAPC; format: biochemical, mouse
Protocol: as §2, §3

Balb/c mice [6] = experiment: Ex vivo whole blood aPTT after intravenous APC in Balb/c mice; set-up: species or system mouse; conditions: for mean whole blood aPTT clotting time: 2 minutes after intravenous APC 0.5 mg/kg, saline 30 sec
Protocol: Recombinant murine APC was administered intravenously to Balb/c mice by tail vein injection 2 minutes prior to retroorbital blood harvest in siliconized microcapillaries (75 μL) prefilled with 20 μL Sodium-Citrate (3.8%). Whole blood aPTT was performed immediately, whereby 50 μL of blood were mixed with 50 μL of aPTT reagent (APTT-XL, Pacific Hemostasis) and incubated at 37° C. for 3 minutes in the presence of FVa or buffer. Following addition of 25 μL of 130 mM CaCl2 in HBS, 0.5% BSA, the clotting time was recorded using an ST4 coagulometer (Diagnostica Stago).

Balb/c mice [7] = experiment: Tail clip bleeding assay, APC-induced bleeding in Balb/c mice; format: in vivo, mouse
Protocol: Mice were anesthetized with Isoflurane 3%, placed on temperature controlled heating pads (37° C.), and the distal portion of the tail was cut at 1.5 mm diameter after which the tail was immersed in a predefined volume of 37° C. saline (0.9% NaCl) for 20 minutes. To study effects on bleeding and clot stability, tubes were changed after 10 minutes to collect blood for the first and second 10 minutes separately. Blood loss was determined by the hemoglobin concentration in the saline solution after red cell lysis with 2% acetic acid and measured by absorbance at 490 nm. Using a hemoglobin standard derived from defined blood volumes, blood loss was calculated assuming a hematocrit of 46% and expressed in μL/g body weight. Groups of Balb/c mice were injected intravenously (tail vein) with equal volumes (200 μL) of ^superFVa or saline 2 minutes prior to intravenous injection of rhAPC (Xigris®). Immediately after APC injection tail cut was performed. All agents were diluted in sterile sodium chloride 0.9% for injection (Hospira Inc).

Balb/c mice [8] = experiment: Liver laceration bleeding assay, APC-induced bleeding in Balb/c mice; format: in vivo; conditions: for mortality rate: APC-induced bleeding after liver laceration
Protocol: Mice were anesthetized with Isofluorane 3% and the abdomen was opened by substernal blunt midline dissection. […] Immediately after laceration mice were positioned prone into a small weighing dish (8 cm diameter) filled with saline (37° C., 13 mL), transferred into the anesthesia chamber which rested on a heating pad (37° C.). Anesthesia was maintained at 3% Isofluorane and dishes were changed after 10 minutes to collect blood for the first and second 10 minutes separately. Blood loss was determined as described for the tail clip model. Groups of Balb/c mice were injected intravenously (tail vein) with equal volumes (200 μL) of ^superFVa or saline 2 minutes prior to intravenous injection of plasma-derived human APC, followed immediately by liver laceration. All agents were diluted in sterile sodium chloride 0.9% for injection (Hospira Inc).

[9] = concentrations where ^superFVa restores
[10] = plasma derived human APC 1.25 mg/kg

O=C(NC[C@H]1CN(c2ccc(N3CCOCC3=O)cc2)C(=O)O1)c1ccc(Cl)s1 [rivaroxaban, Rivaroxaban]
concentration for optimal suppression of ETP [1]: 200 nM

FVa: wild-type recombinant human activated Factor V used as comparator [reference compound]
effect on thrombin generation suppressed by APC [2, 9]: did not show effects
effect on thrombin generation suppressed by APC [3, 9]: did not show effects
aPTT ([4]; 0.05 U/mL FVa variants, 10 nM APC, ~100 seconds without FVa): ~80 s
aPTT ([5]; 5 U/mL FVa variants, APC, ~100 seconds without FVa): ~70 s
effect on whole blood aPTT clotting times (Balb/c mice [6]; 1 nM added to whole blood after iv APC 0.5 mg/kg): failed to show a significant effect
mean whole blood aPTT (Balb/c mice [6]; FVa variant added ex vivo to whole blood drawn after APC 0.5 mg/kg injection): 50 s

APC: Activated Protein C; recombinant human (Xigris®, Eli Lilly) or plasma-derived human APC
optimal concentration for maximal suppression of ETP [2]: 5 nM
optimal concentration for maximal suppression of ETP [3]: 100 nM
optimal concentration for aPTT prolongation to ~100 seconds [4]: 10 nM
optimal concentration for aPTT prolongation to ~100 seconds [5]: 25 nM
mean whole blood aPTT clotting time (Balb/c mice [6]): 67 s
mean blood loss (Balb/c mice [7]; APC 1.25 mg/kg iv, combined 20 minutes after tail clip): 27 µL/g
mean blood loss (Balb/c mice [7]; APC 1.25 mg/kg, first 10 minutes after tail clip): 13.7 µL/g
mean blood loss (Balb/c mice [7]; APC 1.25 mg/kg, second 10 minutes after tail clip): 13.2 µL/g
mean blood loss (Balb/c mice [7]; APC, first 10 minutes after tail clip): 13.7 µL/g
dose that resulted in notable bleeding (Balb/c mice [7]; single intravenous administration, in vivo dose response): 1.25 mg/kg
mean blood loss (Balb/c mice [7]; wt APC 1.25 mg/kg iv, tail clip): 27 µL/g
mean blood loss (Balb/c mice [8]; APC 1.25 mg/kg iv, 20 minutes after liver laceration): 40 µL/g
mean blood loss (Balb/c mice [8]; APC 1.25 mg/kg iv, 20 minutes after liver laceration, listed as wt APC): 49 µL/g
mean blood loss (Balb/c mice [8]; APC 1.25 mg/kg, first 10 minutes after liver laceration): 35.1 µL/g
mortality rate (Balb/c mice [8]): 54% and ~50%
mortality rate (Balb/c mice [8]; listed as wt APC): ~40%
mice died during the 1st 10 minutes after injury (Balb/c mice [8]; [10]): Four of 13
more mice died during the 2nd 10 minutes (Balb/c mice [8]; [10]): Three

COc1ccc(-n2nc(C(N)=O)c3c2C(=O)N(c2ccc(N4CCCCC4=O)cc2)CC3)cc1 [apixaban, Apixaban]
concentration for optimal suppression of ETP [1]: 200 nM

B1: murine recombinant wt APC: Recombinant murine APC purified and prepared as previously described (protein)
chain: ANSFLEEMRPGSLERECMEEICDFEEAQEIFQNVEDTLAFWIKYFDGDQCSAPPLDHQCDSPCCGHGTCIDGIGSFSCSCDKGWEGKFCQQELRFQDCRVNNGGCLHYCLEESNGRRCACAPGYELADDHMRCKSTVNFPCGKLGRWIEKKRKILKRDTDLEDELEPDPRIVNGTLTKQGDSPWQAILLDSKKKLACGGVLIHTSWVLTAAHCVEGTKKLTVRLGEYDLRRRDHWELDLDIKEILVHPNYTRSSSDNDIALLRLAQPATLSKTIVPICLPNNGLAQELTQAGQETVVTGWGYQSDRIKDGRRNRTFILTFIRIPLVARNECVEVMKNVVSENMLCAGIIGDTRDACDGDSGGPMVVFFRGTWFLVGLVSWGEGCGHTNNYGIYTKVGSYLKWIHSYIGEKGVSLKSQKL
mean whole blood aPTT clotting time (Balb/c mice [6]): ~60 s
